Values quoted from earlier work as cited in article PMC8811192.
Where two headings read alike, the source gives them in different places.

What was measured:
OrxA (Homo sapiens) [1] = target: OrxA (Homo sapiens) (UniProt O43612)
OrxB (Homo sapiens) = OrxB (Homo sapiens) (UniProt O43612)
OrxA (Homo sapiens) [2] = target: OrxA (Homo sapiens) (UniProt O43612); remark: listed apart in the source

Row | Kd (OrxA (Homo sapiens) [1]) [nM] | Kd (OrxB (Homo sapiens)) [nM] | Kd (OrxA (Homo sapiens) [2]) [nM] | Substance
1 | 25 | – | – | OrxR1 (from UniProt O43613)
2 | – | 40 | 40 | OrxR2 (from UniProt O43614)
